The values that follow come from PMC2765525.

For the assay, the target named is KIX domain (residues 568-672) of mouse CBP (mouse) (UniProt P45481). Kind of assay: NMR titration.
Chain of KIX domain (residues 568-672) of mouse CBP (mouse) (P45481 568-672): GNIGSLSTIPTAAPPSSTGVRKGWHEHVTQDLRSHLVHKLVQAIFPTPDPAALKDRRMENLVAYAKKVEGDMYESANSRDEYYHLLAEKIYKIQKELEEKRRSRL

The term Kd denotes the constant that tells how readily two partners part at equilibrium. “p53(14-28) (from UniProt P04637 14-28) (peptide)” showed a Kd of 214 µM.
